The text below walks through data of patent EP4644423A1 (Biyopharma Co., Ltd, dated 2025).

Assay [1] has as its target T1, RC-Fc (human).
T1 construct: Knob-in-hole heterodimer of the R chain and the C chain, human IgG1 Fc; expressed in 293 cells, purified on Protein A; also called RC-Fc fusion protein; reconstructed CGRP receptor extracellular region
Kind of assay: ELISA, RC-Fc coated, VHH-His titrated, anti-His-HRP; average of Exp1-3. (An ELISA detects its analyte on a solid surface through an enzyme-linked reagent.)

For assay [2], the target named is T1, RC-Fc. Kind of assay: ELISA, RC-Fc coated, VHH-His titrated, anti-His-HRP; Exp2.
Assay [3] addresses T1, RC-Fc. Kind of assay: ELISA, RC-Fc coated, VHH-His titrated, anti-His-HRP; Exp1.
Assay [4] addresses T1, RC-Fc. Kind of assay: ELISA, RC-Fc coated, VHH-His titrated, anti-His-HRP; Exp3.
Assay [5] has as its target T2, pituitary adenylate cyclase-activating polypeptide (PACAP) (UniProt P18509 132-169, not fully specified; biotin label in the ELISA of Example 3 (Biotin-PACAP; position not stated); unlabelled in the cAMP assay).
T2 construct: also called PACAP38; Biotin-PACAP
T2 peptide (looked up): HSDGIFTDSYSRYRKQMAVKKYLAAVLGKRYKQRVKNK
Kind of assay: ELISA, Biotin-PACAP on streptavidin plate, Fc fusion titrated, anti-human IgG-HRP.

The target in assay [6] is CGRP receptor on SK-N-MC cells (UniProt O60894 27-148; Q16602 23-461, limits assumed). As to the kind of experiment: cell-based or functional assay.
Sequence of CGRP receptor on SK-N-MC cells (O60894 27-148 limits assumed, chain 1 of 2): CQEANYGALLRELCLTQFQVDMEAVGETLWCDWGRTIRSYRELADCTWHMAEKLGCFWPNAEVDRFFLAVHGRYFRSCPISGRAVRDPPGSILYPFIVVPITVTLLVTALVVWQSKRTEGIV
Sequence of CGRP receptor on SK-N-MC cells (Q16602 23-461 limits assumed, chain 2 of 2): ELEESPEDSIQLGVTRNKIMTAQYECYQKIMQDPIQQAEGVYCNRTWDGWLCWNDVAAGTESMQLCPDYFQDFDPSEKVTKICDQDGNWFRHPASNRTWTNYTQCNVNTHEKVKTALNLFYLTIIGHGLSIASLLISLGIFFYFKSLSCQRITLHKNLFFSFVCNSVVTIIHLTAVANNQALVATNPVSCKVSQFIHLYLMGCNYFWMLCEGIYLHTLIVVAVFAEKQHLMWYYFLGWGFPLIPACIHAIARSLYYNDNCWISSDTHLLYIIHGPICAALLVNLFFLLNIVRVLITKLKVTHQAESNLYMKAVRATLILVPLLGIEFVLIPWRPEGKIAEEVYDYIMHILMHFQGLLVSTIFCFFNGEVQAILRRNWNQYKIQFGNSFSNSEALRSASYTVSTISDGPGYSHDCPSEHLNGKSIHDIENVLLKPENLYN

T1 sequence (chain, as listed by the source limits assumed, chain 1 of 2): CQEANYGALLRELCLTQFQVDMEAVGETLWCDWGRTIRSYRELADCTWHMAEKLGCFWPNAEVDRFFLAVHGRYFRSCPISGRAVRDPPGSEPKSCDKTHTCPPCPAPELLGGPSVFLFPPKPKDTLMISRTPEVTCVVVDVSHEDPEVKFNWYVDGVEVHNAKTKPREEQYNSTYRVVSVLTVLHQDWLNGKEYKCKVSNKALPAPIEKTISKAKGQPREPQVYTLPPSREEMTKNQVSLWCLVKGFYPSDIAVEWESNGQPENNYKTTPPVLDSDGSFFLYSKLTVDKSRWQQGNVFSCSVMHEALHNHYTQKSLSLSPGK
T1 sequence (chain, as listed by the source limits assumed, chain 2 of 2): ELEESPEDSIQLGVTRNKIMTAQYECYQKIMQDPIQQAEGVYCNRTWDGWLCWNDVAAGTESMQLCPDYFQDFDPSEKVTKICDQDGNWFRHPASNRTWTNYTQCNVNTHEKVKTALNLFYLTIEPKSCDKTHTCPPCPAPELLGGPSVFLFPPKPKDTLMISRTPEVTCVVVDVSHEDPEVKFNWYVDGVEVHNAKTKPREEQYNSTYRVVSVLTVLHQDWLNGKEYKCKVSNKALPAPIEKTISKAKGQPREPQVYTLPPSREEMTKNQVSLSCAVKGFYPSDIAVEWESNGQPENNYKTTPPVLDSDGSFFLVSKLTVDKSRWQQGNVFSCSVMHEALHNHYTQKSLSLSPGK

B1: A10-269-165 (VHH)
VHH: QVQLVESGGGLVQAGGSLRLSCAASRTWFSIGAMGWYRQAPGKQRELVATITSGSSTTYADAVKGRFTVSRDNAENTVYLQMNSLKPEDTAVYYCYTKSRRKPWDLENDYWGQGTQVTVSS
notes: Llama VHH with C-terminal 6xHis, expressed in 293 cells; also called N220505103
By EC50 is commonly meant the concentration that produces a half-maximal response. With B1, the EC50 in assay [1] turned out to be 0.211 nM; in assay [2], 0.057 nM; in assay [3], 0.097 nM; in assay [4], 0.48 nM.

B2: PAC1s ECD-Fc (Fc fusion)
chain: MHSDCIFKKEQAMCLEKIQRANELMGFNDSSPGCPGMWDNITCWKPAHVGEMVLVSCPELFRIFNPDQDMGVVSRNCTEDGWSEPFPHYFDACGFDEYESETGDQDYYYLSVKA
notes: C-terminus of PAC1s ECD fused to the N-terminus of Fc; also called PACs1 ECD-Fc; PACls ECD-Fc; not shown: Fc fused to the C-terminus of the ECD
Turning to B2, in assay [5], the “fold binding ability against PAC1 ECD-Fc” value was 40 times that of PAC1 ECD-Fc.

B3: A10-268-5 (VHH)
VHH: QVQLVESGGGLVQAGGSLRLSCAVSGRTVTTITMGWFRQAPGKEREFVASISWDGLSTGYQDSVKGRFTISRDNAKNTVYLQMNSLKPEDTAVYYCAAGDSLWSWSKVPANYAYWGQGTQVTVSS
notes: Llama VHH with C-terminal 6xHis, expressed in 293 cells; also called B828601
With B3, the EC50 in assay [1] amounted to 0.136 nM; in assay [2], 0.184 nM; in assay [3], 0.143 nM; in assay [4], 0.08 nM. Further, the “IC50 (nM), inhibition of CGRP-induced (5 nM) cAMP production in SK-N-MC cells” value (“IC50 (nM), inhibition of CGRP-induced” for short) in assay [6] is more than 10000 nM.

B4: A10-269-56 (VHH)
VHH: EVQLVESGGGLVQAGGSLRLSCAASGSTFSGRYMGWFRQGQGKEREFVAASMWSGTAISYADSVKGRFTISRDNAKATMYLQMSSLKDEDTAVYYCAAGGLWNLKLSDAGYYEYWGQGTQVTVSS
notes: Llama VHH with C-terminal 6xHis, expressed in 293 cells; also called N220505101
On to B4, for which the binding result in assay [3] is on record as “no binding”.

B5: A10-268-42 (VHH)
VHH: QVQLVESGGGLVQAGDSLRLSCAASGRTFSGYVMGWFRQAPGKEREFVAALRWSSSNTNYAASVKGRFTISRDYAKDTVYLQMNSLKPDDTAVYYCAAKRDRPYGSTWTPVAADYDTWGQGTQVTVSS
notes: Llama VHH with C-terminal 6xHis, expressed in 293 cells; also called B828603; 42wt
Regarding B5, the half-maximal effective concentration (EC50) in assay [1] stood at 0.065 nM; in assay [2], 0.15 nM; in assay [3] it was 0.025 nM; in assay [4], 0.021 nM. The “IC50 (nM), inhibition of CGRP-induced” value in assay [6] turned out to be 39.7 nM.

B6: A10-268-273 (VHH)
VHH: EVQLVESGGGLVQPGDSLTLSCAASGRAKNRYVMGWFRQAPGKEREFVAALRWSSSNTNYAASVKGRFTISRDYAKDTVYLQMNSLKPDDTAVYYCAAKRDRPYGSTWTPVAADYDTWGQGTQVTVSA
Regarding B6, in assay [6], the “IC50 (nM), inhibition of CGRP-induced” value was 23.6 nM.

B7: A10-268-18 (VHH)
VHH: QVQLVESGGGQVQAGGSLRLSCAASGRISSSYDMGWLRQAPGKEREFVARITWSGGSTYYADSVKGRFTISRDSTKKTVYLQMNSLKPEDTAVYYCAANRAFTGQYDYWGQGTQVTVSS
Take B7: in assay [6], the “IC50 (nM), inhibition of CGRP-induced” value came to 492 nM.

B8: A10-269-238 (VHH)
VHH: QVQLVESGGGLVQPGGSLRLSCAASGFTFGNYDMSWVRQAPGKGPEWVSGIAPAGTITRYADSVKGRFTISRDNAKNTLYLQMNSLKPEDTAVYRCAKGASWGQGTQVTVSS
notes: Llama VHH with C-terminal 6xHis, expressed in 293 cells; also called N220505106
Take B8: the EC50 in assay [1] was found to be 0.082 nM; in assay [2], 0.073 nM; in assay [3], 0.091 nM; in assay [4], 0.081 nM.

B9: A10-268-76 (VHH)
VHH: QVQLVESGGGLVPAGGSLNLSCAASGRTFSTYAMGWFRQAPGKEREFVATINWDNGRTYYADSVKGRFTISRDNAKNMVYLQMNSLKPEDTAVYYCAADKTAIFRTSVVPDDYDYWGQGTQVTVSS
notes: Llama VHH with C-terminal 6xHis, expressed in 293 cells; also called B828604
Take B9: the EC50 is 0.065 nM in assay [1], 0.144 nM in assay [2], 0.024 nM in assay [3] and 0.028 nM in assay [4]. Besides, the “IC50 (nM), inhibition of CGRP-induced” value in assay [6] is more than 10000 nM.

B10: A10-268-103 (VHH)
VHH: QVQLVESGGGLVQAGGSLRLSCVASGRTFSSYAMGWFRQAPGKEREFVSGITESGATTRYADSMRGRFIISRDNAQNTVYLEMNSLKPEDSAVYYCAASRFGITVPTAKGAYNYWGQGTQVTVSS
notes: Llama VHH with C-terminal 6xHis, expressed in 293 cells; also called B828605
Consider B10, for which the EC50 in assay [1] stood at 0.25 nM; in assay [2], 0.114 nM; in assay [3], 0.372 nM; in assay [4], 0.265 nM. In assay [6], the “IC50 (nM), inhibition of CGRP-induced” value was 279 nM.

B11: A10-269-172 (VHH)
VHH: EVQVVESGGGLVQAGGSLRLSCVSSESSFSINTMRWYRQAPGKERELVASINSASSTYYGDAVKGRFTISRVNAKNTVYLQMNSLKPEDTAVYFCNTHSVLASRDYWGQGTQVTVSS
notes: Llama VHH with C-terminal 6xHis, expressed in 293 cells; also called N220505104
On to B11, for which the EC50 in assay [1] is 0.05 nM; in assay [2] it was 0.051 nM; in assay [3], 0.056 nM; in assay [4], 0.042 nM.

B12: A10-269-385 (VHH)
VHH: EVQLVESGGGLVQAGGSLRVSCQASEISFSFHAMGWYRQAPGKQRELVARITSIGRTTYADFVKGRFTISRGNAKNTVYLQMNSLKPEDTAVYYCNAEPGRVNYEYWGQGTQVTVSS
notes: Llama VHH with C-terminal 6xHis, expressed in 293 cells; also called N220505107
For the molecule B12, the 50% effective concentration (EC50) stood at 0.062 nM in assay [1], 0.073 nM in assay [2], 0.052 nM in assay [3] and 0.061 nM in assay [4].
